The numbers were not newly measured in EP3906935A1, “PEPTIDES FOR PREVENTING OR TREATING VIRAL INFECTIONS” (SORBONNE UNIVERSITE, priority 2020, dated 2021), which cites them from elsewhere.

For the data set the following is noted: N- and C-protected peptide; experimental data reported by Zhou et al.

“Ac-EAEKAAKEAEKAAKEAEK-NH2 [SEQ ID NO: 146, peptide of eighteen residues with N- and C-protected extremities previously built by Zhou et al]”: the “content of amphipathic helical structure in solution” value is 65%.
